Laboratory results from article PMC9603474, “Genome-Wide Identification of DOF Gene Family and the Mechanism Dissection of SbDof21 Regulating Starch Biosynthesis in Sorghum”.

Molecular target: T1, SbDOF21 (Sorghum bicolor cv. BTx623, UniProt C5Y2M8 1-340)
T1 sequence: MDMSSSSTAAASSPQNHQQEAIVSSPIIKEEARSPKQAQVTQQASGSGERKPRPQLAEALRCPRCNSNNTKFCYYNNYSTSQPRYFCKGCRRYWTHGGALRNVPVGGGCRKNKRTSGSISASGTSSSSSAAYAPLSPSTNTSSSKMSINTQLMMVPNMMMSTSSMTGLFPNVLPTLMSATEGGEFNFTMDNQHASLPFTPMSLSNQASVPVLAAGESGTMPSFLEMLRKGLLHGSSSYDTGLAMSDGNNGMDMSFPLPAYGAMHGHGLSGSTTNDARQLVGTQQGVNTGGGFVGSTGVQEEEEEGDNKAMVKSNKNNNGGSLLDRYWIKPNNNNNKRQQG
Experiment: EMSA; 20-fold unlabeled probe partly reduced the shift; Chemiluminescent EMSA Kit (Beyotime) per instructions; buffer, salt, pH and temperature not stated
Conditions: protein: recombinant; tags: His (pET32a, N-terminal vector fusion); blunt

B1: 4x P-Box (dsDNA)
DNA 1: TGTAAAGTGTAAAGTGTAAAGTGTAAAG
DNA 2: CTTTACACTTTACACTTTACACTTTACA
B1: binds.
